In paper PMC8351461:

Molecular target: Nucleocapsid protein (N) (SARS-CoV-2, UniProt P0DTC9 1-419)
Experiment: EMSA; no sdAb; Hill fixed at 5
Conditions: protein: recombinant, tags: His6 or His6-MBP N-terminal fusion vector, TEV cleavage, chain copies: 2

Row | Binder | Kd (label: 5'-FAM on strand 1, blunt) [nM] | Kd (label: 5'-FAM, single strand) [nM]
1 | 7mer dsRNA (dsRNA) RNA 1: CACUGAC RNA 2: GUCAGUG | 480 ± 30 | 
2 | CACUGAC (ssRNA) [7mer ssRNA] |  | 560 ± 60
